This experiment has as its target T1, human ferroportin (SLC40A1) fused in frame with GFP, stably expressed in HEK293 cells (human, UniProt Q9NP59 1-571).
T1 sequence (looked up): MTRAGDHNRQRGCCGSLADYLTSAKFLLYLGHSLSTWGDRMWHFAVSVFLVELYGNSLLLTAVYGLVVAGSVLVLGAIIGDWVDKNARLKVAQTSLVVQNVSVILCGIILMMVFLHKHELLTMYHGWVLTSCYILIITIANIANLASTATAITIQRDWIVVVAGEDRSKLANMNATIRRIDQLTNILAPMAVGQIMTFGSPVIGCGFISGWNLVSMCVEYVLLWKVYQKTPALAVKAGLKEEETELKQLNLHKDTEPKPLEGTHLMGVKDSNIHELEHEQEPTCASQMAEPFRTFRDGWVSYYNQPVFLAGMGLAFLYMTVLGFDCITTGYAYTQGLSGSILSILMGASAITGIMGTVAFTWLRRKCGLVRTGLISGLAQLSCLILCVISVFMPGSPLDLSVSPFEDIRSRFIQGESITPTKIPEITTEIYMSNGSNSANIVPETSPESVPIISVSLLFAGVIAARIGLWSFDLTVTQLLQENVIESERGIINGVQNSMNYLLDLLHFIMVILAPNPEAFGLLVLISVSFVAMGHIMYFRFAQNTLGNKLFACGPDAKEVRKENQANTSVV
In words: cell-based or functional assay.

Numbered stars: 1 amine (or outer) side, 2 acyl side, 3 side chain; on linkers, the order of the positions; unused ones are H or OH. Bridge positions count the residues as written; N and C are the ends. Square brackets hold non-standard residues; d marks the D form. Ends that are not written are not given here. * marks the point of attachment. Ida = iminodiacetic acid, O=C(CN(CC(=O)[*:3])[*:1])[*:2]; Dip = N[C@H](C(=O)O)C(c1ccccc1)c1ccccc1; β3hF = N[C@H](CC(=O)O)Cc1ccccc1; pGlu = O=C1CC[C@@H](C(=O)O)N1; β3hP = O=C(O)C[C@@H]1CCCN1; Isovaleryl = CC(C)CC(=O)*

B1: Hy-DTHFPCIIR-NH2 (peptide)
peptide: H-DTHFPCIIR-NH2
Regarding B1, the “Potency: percent at the stated concentration, ferroportin-GFP internalization/degradation” value came to 62 % at 1 µM.

B2: Hy-DTHCPIAIF-NH2 (peptide)
peptide: H-DTHCPIAIF-NH2
In the case of B2, the “Potency EC50 (nM), ferroportin-GFP internalization/degradation” value was greater than 10000 nM.

B3: Hy-DTKFPCIIF-NH2 (peptide)
peptide: H-DTKFPCIIF-NH2
In the case of B3, the “Potency: percent at the stated concentration, ferroportin-GFP internalization/degradation” value was found to be 60 % at 1 µM.

B4: Hy-DTHFPCRIF-NH2 (peptide)
peptide: H-DTHFPCRIF-NH2
As to B4, the “Potency: percent at the stated concentration, ferroportin-GFP internalization/degradation” value was found to be 31 % at 10 uM.

B5: Hy-DTHFPCIF-NH2 (peptide)
peptide: H-DTHFPCIF-NH2
Regarding B5, the “Potency: percent at the stated concentration, ferroportin-GFP internalization/degradation” value stood at 52 % at 1 µM.

B6: Isovaleric acid-DTHFPCIKF-K(isoglu-Palm)-PHSKECK-NH2 (peptide)
peptide: DTHFPCIKFKPHSKECK
modifications: N-terminal isovaleric acid; K(isoglu-Palm) at Lys 10; C-terminal amide
On to B6, for which the “Potency EC50 (nM), ferroportin-GFP internalization/degradation” value came out at 6 nM.

B7: Hy-DTHAPCIIF-NH2 (peptide)
peptide: H-DTHAPCIIF-NH2
For the molecule B7, the “Potency EC50 (nM), ferroportin-GFP internalization/degradation” value was greater than 10000 nM.

B8: Hy-[pGlu]-THFPCRKF-NH2 (peptide)
peptide: [pGlu]THFPCRKF-NH2
SMILES: C[C@@H](O)[C@H](NC(=O)[C@@H]1CCC(=O)N1)C(=O)N[C@@H](Cc1c[nH]cn1)C(=O)N[C@@H](Cc1ccccc1)C(=O)N1CCC[C@H]1C(=O)N[C@@H](CS)C(=O)N[C@@H](CCCNC(=N)N)C(=O)N[C@@H](CCCCN)C(=O)N[C@@H](Cc1ccccc1)C(N)=O
Turning to B8, the “Potency EC50 (nM), ferroportin-GFP internalization/degradation” value is greater than 1000 nM.

B9: Hy-DTHFPCILK-NH2 (peptide)
peptide: H-DTHFPCILK-NH2
For the molecule B9, the “Potency: percent at the stated concentration, ferroportin-GFP internalization/degradation” value came out at 55 % at 1 µM.

B10: Hy-DTHFPCAIF-NH2 (peptide)
peptide: H-DTHFPCAIF-NH2
On to B10, for which the “Potency EC50 (nM), ferroportin-GFP internalization/degradation” value was greater than 1000 nM.

B11: Hy-DTHFPIICI-NH2 (peptide)
peptide: H-DTHFPIICI-NH2
On to B11, for which the “Potency EC50 (nM), ferroportin-GFP internalization/degradation” value was greater than 10000 nM.

B12: Hy-DTHFPCIEK-NH2 (peptide)
peptide: H-DTHFPCIEK-NH2
On to B12, for which the “Potency: percent at the stated concentration, ferroportin-GFP internalization/degradation” value was found to be 0 % at 1 µM.

B13: [IDA]-THF-[bhPro]-CRR-[bhPhe]GPRSKGWVC-NH2 (peptide)
peptide: [Ida]THF[β3hP]CRR[β3hF]GPRSKGWVC-NH2
modifications: disulfide 6-18 (inferred)
As to B13, the “Potency EC50 (nM), ferroportin-GFP internalization/degradation” value is greater than 1000 nM.

B14: Hy-DTHFPCIKFF-NH2 (peptide)
peptide: H-DTHFPCIKFF-NH2
As to B14, the “Potency: percent at the stated concentration, ferroportin-GFP internalization/degradation” value amounted to 64 % at 1 µM.

B15: Hy-DTHFPCLIF-NH2 (peptide)
peptide: H-DTHFPCLIF-NH2
As for B15, the “Potency EC50 (nM), ferroportin-GFP internalization/degradation” value was greater than 10000 nM.

B16: Isovaleric acid-DTHFPCIKF-NH2 (peptide)
peptide: Isovaleryl-DTHFPCIKF-NH2
SMILES: CC[C@H](C)[C@H](NC(=O)[C@H](CS)NC(=O)[C@@H]1CCCN1C(=O)[C@H](Cc1ccccc1)NC(=O)[C@H](Cc1c[nH]cn1)NC(=O)[C@@H](NC(=O)[C@H](CC(=O)O)NC(=O)CC(C)C)[C@@H](C)O)C(=O)N[C@@H](CCCCN)C(=O)N[C@@H](Cc1ccccc1)C(N)=O
As to B16, the “Potency EC50 (nM), ferroportin-GFP internalization/degradation” value turned out to be 7 nM.

B17: Hy-DTHFPCEIF-NH2 (peptide)
peptide: H-DTHFPCEIF-NH2
Regarding B17, the “Potency EC50 (nM), ferroportin-GFP internalization/degradation” value is greater than 1000 nM.

B18: Hy-DTHFPCIEF-NH2 (peptide)
peptide: H-DTHFPCIEF-NH2
On to B18, for which the “Potency EC50 (nM), ferroportin-GFP internalization/degradation” value was greater than 1000 nM.

B19: Hy-DTHICIAIF-NH2 (peptide)
peptide: H-DTHICIAIF-NH2
Turning to B19, the “Potency EC50 (nM), ferroportin-GFP internalization/degradation” value is greater than 10000 nM.

B20: Hy-DTHFPCIIA-NH2 (peptide)
peptide: H-DTHFPCIIA-NH2
For the molecule B20, the “Potency EC50 (nM), ferroportin-GFP internalization/degradation” value was greater than 1000 nM.

B21: Hy-DTHFPCIEF-NH2 (peptide)
peptide: H-DTHFPCIEF-NH2
Regarding B21, the “Potency EC50 (nM), ferroportin-GFP internalization/degradation” value was greater than 1000 nM.

B22: Hy-DTHFACIIF-NH2 (peptide)
peptide: H-DTHFACIIF-NH2
On to B22, for which the “Potency EC50 (nM), ferroportin-GFP internalization/degradation” value is greater than 1000 nM.

B23: Isovaleric acid-DTHFPCIKKEPHSKECK-NH2 (peptide)
peptide: Isovaleryl-DTHFPCIKKEPHSKECK-NH2
modifications: disulfide 6-16 (inferred)
Regarding B23, the “Potency EC50 (nM), ferroportin-GFP internalization/degradation” value was greater than 1000 nM.

B24: Hy-ATHFPCIIF-NH2 (peptide)
peptide: H-ATHFPCIIF-NH2
B24: the “Potency EC50 (nM), ferroportin-GFP internalization/degradation” value was greater than 1000 nM.

B25: Hy-LTHFPCIIF-NH2 (peptide)
peptide: H-LTHFPCIIF-NH2
On to B25, for which the “Potency: percent at the stated concentration, ferroportin-GFP internalization/degradation” value turned out to be 64 % at 1 µM.

B26: Hy-DTHFPCFIF-NH2 (peptide)
peptide: H-DTHFPCFIF-NH2
For B26, the “Potency EC50 (nM), ferroportin-GFP internalization/degradation” value amounted to 1190 nM.

B27: Hy-DTHF-(D)-Ala-CIIF-NH2 (peptide)
peptide: H-DTHF[dA]CIIF-NH2
SMILES: CC[C@H](C)[C@H](NC(=O)[C@H](CS)NC(=O)[C@@H](C)NC(=O)[C@H](Cc1ccccc1)NC(=O)[C@H](Cc1c[nH]cn1)NC(=O)[C@@H](NC(=O)[C@@H](N)CC(=O)O)[C@@H](C)O)C(=O)N[C@H](C(=O)N[C@@H](Cc1ccccc1)C(N)=O)[C@@H](C)CC
On to B27, for which the “Potency EC50 (nM), ferroportin-GFP internalization/degradation” value was greater than 10000 nM.

B28: Hy-DTHFPCAIF-NH2 (peptide)
peptide: H-DTHFPCAIF-NH2
For B28, the “Potency EC50 (nM), ferroportin-GFP internalization/degradation” value is greater than 1000 nM.

B29: Hy-ETHFPCIIF-NH2 (peptide)
peptide: H-ETHFPCIIF-NH2
Consider B29, for which the “Potency: percent at the stated concentration, ferroportin-GFP internalization/degradation” value was 77 % at 1 µM.

B30: [Ida]-THF-[bhPro]-CIIF-NH2 (peptide)
peptide: [Ida]THF[β3hP]CIIF-NH2
With B30, the “Potency EC50 (nM), ferroportin-GFP internalization/degradation” value is greater than 1000 nM.

B31: Hy-DTHFPCILF-NH2 (peptide)
peptide: H-DTHFPCILF-NH2
Take B31: the “Potency: percent at the stated concentration, ferroportin-GFP internalization/degradation” value is 89 % at 1 µM.

B32: Hy-DTHFPCRF-NH2 (peptide)
peptide: H-DTHFPCRF-NH2
B32: the “Potency: percent at the stated concentration, ferroportin-GFP internalization/degradation” value amounted to 31 % at 10 uM.

B33: Hy-DTHFPCKIF-NH2 (peptide)
peptide: H-DTHFPCKIF-NH2
As to B33, the “Potency: percent at the stated concentration, ferroportin-GFP internalization/degradation” value is 9 % at 10 uM.

B34: Isovaleric acid-DTHFPCIIF-NH2 (peptide)
peptide: Isovaleryl-DTHFPCIIF-NH2
SMILES: CC[C@H](C)[C@H](NC(=O)[C@H](CS)NC(=O)[C@@H]1CCCN1C(=O)[C@H](Cc1ccccc1)NC(=O)[C@H](Cc1c[nH]cn1)NC(=O)[C@@H](NC(=O)[C@H](CC(=O)O)NC(=O)CC(C)C)[C@@H](C)O)C(=O)N[C@H](C(=O)N[C@@H](Cc1ccccc1)C(N)=O)[C@@H](C)CC
On to B34, for which the “Potency EC50 (nM), ferroportin-GFP internalization/degradation” value was determined as 16 nM.

B35: Hy-DTHFPIAICI-NH2 (peptide)
peptide: H-DTHFPIAICI-NH2
For B35, the “Potency EC50 (nM), ferroportin-GFP internalization/degradation” value is greater than 10000 nM.

B36: Hy-DTHFPCLF-NH2 (peptide)
peptide: H-DTHFPCLF-NH2
B36: the “Potency: percent at the stated concentration, ferroportin-GFP internalization/degradation” value came out at 39 % at 1 uM.

B37: Hy-DTAFPCIIF-NH2 (peptide)
peptide: H-DTAFPCIIF-NH2
For B37, the “Potency EC50 (nM), ferroportin-GFP internalization/degradation” value was found to be 739 nM.

B38: [IDA]-TH-[Dpa]-[bhPro]CRR-[bhPhe]-NH2 (peptide)
peptide: [Ida]TH[Dip][β3hP]CRR[β3hF]-NH2
Turning to B38, the “Potency EC50 (nM), ferroportin-GFP internalization/degradation” value stood at 206 nM.

B39: Hy-DTHFPCVIF-NH2 (peptide)
peptide: H-DTHFPCVIF-NH2
In the case of B39, the “Potency: percent at the stated concentration, ferroportin-GFP internalization/degradation” value worked out at 81 % at 10 uM.

B40: Hy-DTHFPCQIF-NH2 (peptide)
peptide: H-DTHFPCQIF-NH2
For the molecule B40, the “Potency EC50 (nM), ferroportin-GFP internalization/degradation” value is greater than 1000 nM.

B41: Hy-DTHFPRRFGPRSKGWVC-NH2 (peptide)
peptide: H-DTHFPRRFGPRSKGWVC-NH2
Consider B41, for which the “Potency EC50 (nM), ferroportin-GFP internalization/degradation” value is greater than 1000 nM.

B42: Hy-DTHFPCRIF-NH2 (peptide)
peptide: H-DTHFPCRIF-NH2
Turning to B42, the “Potency EC50 (nM), ferroportin-GFP internalization/degradation” value was greater than 1000 nM.

B43: Hy-DTHFPCIIK-NH2 (peptide)
peptide: H-DTHFPCIIK-NH2
B43: the “Potency: percent at the stated concentration, ferroportin-GFP internalization/degradation” value was 55 % at 1 µM.

B44: Hy-DTHFPCIVF-NH2 (peptide)
peptide: H-DTHFPCIVF-NH2
For B44, the “Potency: percent at the stated concentration, ferroportin-GFP internalization/degradation” value is 75 % at 1 µM.

For the origin of these results see US20170313754A1 (PROTAGONIST THERAPEUTICS, published 2017).
